# Assay results taken from PMC5807053, “Saposin Lipid Nanoparticles: A Highly Versatile and Modular Tool for Membrane Protein Research” (Structure(London, England:1993), 2018).
# Read-outs that look alike come from different tables or passages of the source. Residues, ends and D or L forms follow the SMILES beside them.
# T1: PepTSo2 (Shewanella oneidensis, UniProt Q8EHE6)
# T1 sequence (Q8EHE6 1-516): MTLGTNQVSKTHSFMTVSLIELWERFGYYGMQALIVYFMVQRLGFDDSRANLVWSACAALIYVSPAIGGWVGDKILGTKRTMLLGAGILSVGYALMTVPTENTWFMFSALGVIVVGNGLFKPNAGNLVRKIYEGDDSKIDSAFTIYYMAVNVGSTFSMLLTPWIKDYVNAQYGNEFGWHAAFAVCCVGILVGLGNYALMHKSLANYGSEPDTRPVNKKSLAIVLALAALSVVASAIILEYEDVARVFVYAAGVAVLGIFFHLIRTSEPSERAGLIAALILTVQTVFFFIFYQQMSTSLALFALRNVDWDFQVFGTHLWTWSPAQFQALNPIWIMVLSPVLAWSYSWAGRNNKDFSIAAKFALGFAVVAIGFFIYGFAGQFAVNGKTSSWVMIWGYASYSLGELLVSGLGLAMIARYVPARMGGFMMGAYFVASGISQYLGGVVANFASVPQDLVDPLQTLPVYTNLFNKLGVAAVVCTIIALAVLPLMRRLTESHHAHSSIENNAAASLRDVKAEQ
# T2: SapA/POPS empty nanoparticles (Homo sapiens, UniProt P07602)
# T2 construct: saposin A (residues 60 to 140); made in house; host or cells: E. coli Rosetta gami-2 (DE3)
# T2 sequence (P07602 60-140): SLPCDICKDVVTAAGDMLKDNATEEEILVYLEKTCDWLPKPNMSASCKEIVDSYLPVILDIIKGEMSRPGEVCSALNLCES
# What was measured:
# PepTSo2 = target: T1, PepTSo2; test: MST di-/tripeptide binding in solution to PepTSo2; settings: 20 °C
# Description: (§1) The samples were loaded in standard glass capillaries. […] Empty SapNPs were used as control measurements.
# [1] = target: peptide transporter PepTSt from Streptococcus thermophilus (Streptococcus thermophilus) (UniProt Q5M4H8); test: MST; label-free (intrinsic tryptophan fluorescence), DDM-solubilised transporter at ~125 nM, 16 peptide concentrations, 20 mM Tris pH 7.5, 150 mM NaCl, 5 % glycerol, 0.03 % DDM, 20 °C
# [2] = target: peptide transporter PepTSt from Streptococcus thermophilus (Streptococcus thermophilus) (UniProt Q5M4H8); test: MST; label-free, transporter reconstituted in SapA/POPS nanoparticles at ~125 nM, 16 peptide concentrations, 1x PBS, 20 °C
# [3] = target: peptide transporter PepTSt from Streptococcus thermophilus (Streptococcus thermophilus) (UniProt Q5M4H8); test: MST; label-free, transporter reconstituted in SapA/BL (brain total lipid extract) nanoparticles at ~125 nM, 16 peptide concentrations, 1x PBS, 20 °C
# [4] = target: T2, SapA/POPS empty nanoparticles; test: MST control for unspecific peptide binding to empty SapA/POPS nanoparticles
# Description: as §1
# PepTSt = settings: MST, 20 °C
# Method: PepTSt and PepTSo2 di and tripeptide binding in solution was measured by MST with the Monolith NT.LabelFree (NanoTemper technologies). The proteins were kept at a constant concentration of ∼125 nM and were combined with a series of 16 different peptide concentrations. For DDM- and SapNP-solubilized proteins, the ligands were diluted in DDM buffer (20 mM Tris pH 7.5, 150 mM NaCl, 5 % glycerol, and 0.03 % DDM) and in 1 × PBS, respectively. The thermophoretic movement of the proteins, alone and in complex with different peptides, was monitored and quantified using time-dependent intrinsic tryptophan fluorescence. The samples were loaded in standard glass capillaries. Data were acquired at 20 °C, the LED power was set to 20 %, and the MST power to 20 % and 40 %. The dissociation constant (KD) values were derived from the nonlinear fitting of the normalized fluorescence signal at different ligand concentrations using the NT analysis software. Empty SapNPs were used as control measurements.
# [5] = target: small-conductance mechanosensitive channel T2 from Thermoplasma volcanium (Thermoplasma volcanium); test: SEC-MALS; triple-detection SEC conjugate analysis (UV, refractive index, multi-angle light scattering); 60 uL T2 at 5 mg/mL on SD200 10/300 in 20 mM Tris pH 7.5, 150 mM NaCl, 5 % glycerol, 0.03 % DDM
# [6] = design: method as in Frauenfeld et al., 2016; settings: ref Frauenfeld et al., 2016, cited from earlier work
# [7] = Protein thermal unfolding by dye-free nanoDSF; type: physicochemical; settings: purified protein alone, 20 to 95 °C
# Method: The stability of the different DDM-solubilized or SapNP-reconstituted proteins was followed using a nanoDSF (Prometheus NT.48 form NanoTemper Technologies, GmbH). The dye-free proteins were excited at 280 nm and their intrinsic fluorescence at 350 and 330 nm were measured as a function of temperature to monitor the fluorescence changes upon heat unfolding. 10 μL of protein solution at a concentration of 0.5 mg/mL were loaded in a glass capillary, and the unfolding was measured in duplicates at a heating rate of 1 °C/min between 20 and 95 °C. The first derivative of the unfolding curves (350/330 nm ratio) was used to determine the transition midpoint (Tm).
molecule,measurement,setting,value
C[C@H](N)C(=O)N[C@@H](Cc1ccccc1)C(=O)N[C@@H](C)C(=O)O [Ala-Phe-Ala] (H-Ala-Phe-Ala-OH; N-terminus and C-terminus assumed),Kd,PepTSo2; PepTSo2 in DDM,3.4 ± 1.3 mM
same,Kd,PepTSo2; PepTSo2 reconstituted in SapA/BL,5 ± 3 mM
dipeptide Leu-Ala,Kd,[1],16.6 mM
same,Kd,[2],5.49 mM
same,Kd,[3],16.4 mM
CC(C)C[C@H](N)C(=O)N[C@@H](C)C(=O)O [Leu-Ala] (H-Leu-Ala-OH; N-terminus and C-terminus assumed),unspecific peptide binding,[4],no unspecific peptide binding
same,Kd,PepTSt; PepTSt in DDM,16.6 ± 3.6 mM
same,Kd,PepTSt; PepTSt in SapA/BL,16.4 ± 3.6 mM
same,Kd,PepTSt; PepTSt in SapA/POPS,5.49 ± 1 mM
small-conductance mechanosensitive channel T2 from Thermoplasma volcanium (natural protein),stoichiometry N,[5],7
PepTSo2: peptide transporter from Shewanella oneidensis (protein) MTLGTNQVSKTHSFMTVSLIELWERFGYYGMQALIVYFMVQRLGFDDSRANLVWSACAALIYVSPAIGGWVGDKILGTKRTMLLGAGILSVGYALMTVPTENTWFMFSALGVIVVGNGLFKPNAGNLVRKIYEGDDSKIDSAFTIYYMAVNVGSTFSMLLTPWIKDYVNAQYGNEFGWHAAFAVCCVGILVGLGNYALMHKSLANYGSEPDTRPVNKKSLAIVLALAALSVVASAIILEYEDVARVFVYAAGVAVLGIFFHLIRTSEPSERAGLIAALILTVQTVFFFIFYQQMSTSLALFALRNVDWDFQVFGTHLWTWSPAQFQALNPIWIMVLSPVLAWSYSWAGRNNKDFSIAAKFALGFAVVAIGFFIYGFAGQFAVNGKTSSWVMIWGYASYSLGELLVSGLGLAMIARYVPARMGGFMMGAYFVASGISQYLGGVVANFASVPQDLVDPLQTLPVYTNLFNKLGVAAVVCTIIALAVLPLMRRLTESHHAHSSIENNAAASLRDVKAEQ,Tm,[6]; encapsulated in SapA/BL nanoparticles,72 °C
same,Tm,[6]; in the detergent nonyl-β-D-maltopyranoside,43 °C
"saposin A: human saposin A, Prosaposin residues 60 to 140, recombinant (protein, left off: His6, N-terminal, cleaved, human saposin A, Prosaposin residues 60 to 140, recombinant) SLPCDICKDVVTAAGDMLKDNATEEEILVYLEKTCDWLPKPNMSASCKEIVDSYLPVILDIIKGEMSRPGEVCSALNLCES",unfolding transition,[7],does not show an unfolding transition
